Article PMC9008036, “Structural and molecular determinants for the interaction of ExbB from Serratia marcescens and HasB, a TonB paralog” (Communications Biology, 2022)

Assays:
[1] = biological target: ExbBSm, untagged, co-expressed and co-purified with ExbDSm-His6 (from pBADExbBDSmHis6) (Serratia marcescens); experiment: cryo-EM structure; purified ExbBDSm complex (His6 on ExbD) in LMNG micelles, ca. 1 mg/mL, 20 mM Tris pH 8.0, 100 mM NaCl, 0.0015% LMNG; single-particle, C1, 3.96 Å
[2] = biological target: ExbBSm, C-terminally His6-tagged (from pBADExbBSmHis6), purified alone (Serratia marcescens); experiment: cryo-EM structure; purified ExbBSm-His6 alone in LMNG micelles, ca. 1 mg/mL, 20 mM Tris pH 8.0, 100 mM NaCl, 0.0015% LMNG; single-particle, C5 symmetry, 3.1 Å
[3] = biological target: T1, C-terminal periplasmic domain of HasB, HasBCTD, residues 133-263 (Serratia marcescens, UniProt Q79AD1 133-263, 15N-labeled); experiment: NMR titration; 1H-15N HSQC of 0.15 mM 15N-labeled HasBCTD, 50 mM sodium phosphate pH 7, 50 mM NaCl, 293 K, 600 MHz; peptide added at 2:1 and 10:1 ratios; chemical shift perturbations; conditions: both partners purified
T1 construct: HasB, TonB paralog of Serratia marcescens, C-terminal periplasmic domain, residues 133-263; also called C-terminal globular domain of HasB
T1 sequence (looked up): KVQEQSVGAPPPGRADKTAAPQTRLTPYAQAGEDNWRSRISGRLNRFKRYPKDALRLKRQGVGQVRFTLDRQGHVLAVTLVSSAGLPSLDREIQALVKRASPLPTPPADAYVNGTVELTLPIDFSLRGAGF

Q: Which stoichiometry N (ExbD monomers per ExbB pentamer) [1] does the source give for “ExbDSm, C-terminally His6-tagged (from pBADExbBDSmHis6) (natural protein)” here?
A: Its stoichiometry N (ExbD monomers per ExbB pentamer) is 2.

Q: Which stoichiometry N [2] does the source give for “ExbBSm, C-terminally His6-tagged (from pBADExbBSmHis6), purified alone (natural protein)” here?
A: The stoichiometry N was 5.

Q: “ExbBSm, untagged, co-expressed and co-purified with ExbDSm-His6 (from pBADExbBDSmHis6) (natural protein)” was tested. Which stoichiometry N [1] did it give?
A: Its stoichiometry N is 5.

B1: ExbBSm 1-44 synthetic peptide (periplasmic extension of ExbBSm) (peptide)
peptide: APAANPAVTESVAPTTAPAPAAAAPESITPVNPAPTIQPPETRG
notes: ExbB of Serratia marcescens Db11 (SMDB11_3480), periplasmic N-terminal extension, residues 1-44. numbers count on: the mature protein; also called periplasmic peptide of ExbBSm residues 1-44; periplasmic fragment of ExbBSm; source: synthetic peptide (Proteogenix)
Q: Does B1 bind [3]?
A: Result: binds
